US20090233993A1, “COMPOSITIONS AND METHODS FOR INHIBITING GSK3 ACTIVITY AND USES THEREOF” (Burnham Institute for Medical Research, priority 2008, published 2009)

Experiments:
[1] = test system: 3×Tg AD mice; test: FG01 transgenic mice crossed with triple transgenic (3×Tg) AD mice, brain analysis; type: in vivo, mouse
From the text: (§1) Brain-specific FG01 transgenic mice were generated using a FG01 expression cassette. FG01 has an N-terminal Myc tag and is driven by the human Thy-1 promoter for neuron-specific expression. A SV40 polyA fragment is linked at the 3′ end for enhancing expression. Genotyping P5 primer was complementary to hThy1 sequence. Genotyping P3 primer was complementary to SV40/Poly A sequence. Reverse transcription primer RT-P5 was complementary to sequence on the 5′ side of the FG01 sequence. Hemizygous FG01 transgenic mice were crossed with homozygous triple transgenic (3×Tg) AD mice harboring mutations in human APP and tau genes on a presenilin 1 (PS1) mutant background (Oddo et al., 2003). Procedures involving animals and their care conformed to institutional guidelines (Animal Resources Department at Burnham Institute for Medical Research).
FG01/3×Tg mice and littermate controls on a 3×Tg background were sacrificed at 11 months of age. Half of the brain was used for immunoblot analysis and the other half was paraffin-embedded for immunohistochemistry. Sagittal brain sections (4 μm) were deparaffinized, hydrated, and then immunostained with anti-Aβ antibody (6E10), anti-phosphorylated tau antibody (PHF-1), or anti-synapsin antibody. After additional incubation with biotinylated secondary antibody, samples were incubated in ABC Elite (HRP) reagent (Vector Laboratories). Reactions were visualized by developing in DAB substrates (Vector Laboratories). All samples were visualized under a light microscope.
FG01 transgenic mice were crossed with triple transgenic (3×Tg) AD mice harboring mutations in human APP, tau and presenilin 1 (PS1) genes (Oddo et al., 2003).

[2] = test system: FG01 transgenic mouse brain; test: brain-specific FG01 transgenic mice, brain analysis; type: in vivo
From the text: as §1
N-terminally Myc-tagged FG01 cDNA was cloned into pHZ04 construct between the human Thy-1 promoter and the SV40 polyA regions. Purified, linearized minigenes containing these sequences were microinjected into prenuclear embryos from superovulated C57B16 females. Two primers (Genotyping-P5: 5′-[…]-3′; SEQ ID NO:25), and Genotyping-P3: 5′-[…]-3′; SEQ ID NO:26) located within the human Thy-1 promoter and the SV40 regions, respectively, were used for genotyping. Brain tissues from confirmed transgenic mice and littermate controls were used for RNA extraction, reverse transcription and PCR with RT-P5 primer (5′-AGAATTTGGCTGTTTGG-3′; SEQ ID NO:27) located within the FG01 cDNA region paired with the Genotyping-P3 primer to verify Myc-FG01 expression. Alternatively, brain lysates were immunoprecipitated and analyzed by Western blot with the Myc antibody to verify Myc-FG01 expression. Procedures involving animals and their care conformed to institutional guidelines (Animal Resources Department at Burnham Institute for Medical Research).
To validate FG01 function in vivo, an FG01 transgenic mouse model specifically overexpressing Myc-tagged FG01 in the brain was generated. A transgenic expression cassette driven by the human Thy-1 promoter was microinjected into C57B16 mice and primers specifically amplifying exogenous Myc-FG01 were used to genotype transgenic mice. Genomic DNA extracted from mouse tail samples was genotyped by PCR using Genotyping-P5 and Genotyping-P3 primers located in the human Thy1 and SV40 polyA regions, respectively. […] Total RNA was extracted from the brain of an FG01 transgenic mouse (1) and of a littermate control (0), followed by RT-PCR with the RT-P5 primer located within the FG01-coding region and the Genotyping-P3 primer for detecting Myc-FG01 mRNA. Immunoprecipitation/Western blot confirmed that exogenous Myc-tagged FG01 protein was expressed in brain tissues of transgenic mice. Brain samples from FG01 transgenic (Tg) mice and littermate controls (Non-Tg) were analyzed for levels of phosphorylated/total CREB, phosphorylated/total GSK-3, and various tau forms by direct Western blot. Myc-FG01 was detected by immunoprecipitation-Western blot using the Myc antibody. Two mouse lines with similar exogenous FG01 expression levels were generated and the results obtained from the two lines (including their crossing with 3×Tg mice as described below) were similar. […] Brain lysates from FG01-Tg and Non-Tg mice were analyzed for GSK-3β activity. Results were normalized to those of Non-Tg samples.

[3] = FG01/3×Tg vs 3×Tg littermates, 11 months

B1: FG01: 141 amino acid transmembrane protein encoded by mouse retrogene fg01 (SEQ ID NO:2); expressed from transfected vector or transgene (protein)
chain: MQSQQRNIGYFNHLKADSRNITYSMTFSTKSSNQNFIIFLNEVQAAIIGHERCDLLPVLNELHPDALPDGRIWLFGLNPYFFQHNSLCMRGTPKRIGLQGCAQVGFLVLFVMPLLIPSVTAELPGSSETTTLAHLAGATGP
modifications: Myc and His6 tags; homo sapien
notes: expressed from transfected vector or transgene
[1]; 3×Tg mouse brains with FG01 overexpression
  levels of the synaptic marker PSD-95: markedly increased
[1]; [3]
  Aβ generation in brain: reduced
  GSK-3 activity in brain: reduced
  PKA activity in brain: dramatically increased
  tau phosphorylation in brain: reduced
[1]; hippocampus and cortex, immunohistochemistry 6E10
  number of Aβ-immunostaining-positive neurons: significantly decreased
[1]; hippocampus and cortex, immunohistochemistry PHF-1
  number of phosphorylated tau-immunostaining-positive neurons: significantly decreased
[1]; hippocampus, vs 3×Tg mice without FG01
  synapsin immunostaining: much higher immunoreactivity
[2]; FG01 transgenic vs littermate non-Tg mice
  levels of phosphorylated (inactive) GSK-3α/β in brain: increased
[2]; FG01 transgenic vs non-Tg mice
  CREB phosphorylation in brain: Increased
  phosphorylation of endogenous mouse brain tau: decreased
[2]; FG01 transgenic vs non-Tg mice, brain lysates
  GSK-3β activity in brain: reduced
[2]; observation of FG01 transgenic mice
  behavioral phenotypes: no obvious aberrant behavioral phenotypes
